Results published in the RNAGym collection of RNA variant scans (doi:10.7554/elife.80360).

B1: CPEB3 Ribozyme (parent)
chain: GGGGGCCACAGCAGAAGCGUUCACGUCGCGGCCCCUGUCAGAUUCUGGUGAAUCUGCGAAUUCUGCUGU

Variants of: B1
Test: self-cleavage, relative activity (ratio to wild type); higher = more cleavage; co-transcriptional

Variant | self-cleavage
GGGGGCCACAGCAGAGGCGUUCACGUCGCGGCCCCUGUCAGAUUCUGGUGAAUUUGCGAAUUCUGCUGU [A16G C54U] | 0.928
GGGGGCCACAGCAGACGCGUUCACGUCGCGGCCCCAGUCAGAUUCUGGUGAAUCUGCGAAUUCUGCUGU [A16C U36A] | 0.115
GGGGGCCACAGCAGACGCGUUCACGUCGCGGCCCCCGUCAGAUUCUGGUGAAUCUGCGAAUUCUGCUGU [A16C U36C] | 0.165
GGGGGCCACAGCAGACGCGUUCACGUCGCGGCCCCGGUCAGAUUCUGGUGAAUCUGCGAAUUCUGCUGU [A16C U36G] | 0.108
GGGGGCCACAGCAGAGGCGUUCACGUCGCGGCCCCUGUCAGAUUCUGGUGAAUCUGCGACUUCUGCUGU [A16G A60C] | 0.58
GGGGGCCACAGCAGAGGCGUUCACGUCGCGGCCCCUGUCAGAUUCUGGUGAAUCUGCGAUUUCUGCUGU [A16G A60U] | 0.207
GGGGGCCACAGCAGAGGCGUUCACGUCGCGGCCACUGUCAGAUUCUGGUGAAUCUGCGAAUUCUGCUGU [A16G C34A] | 0.583
GGGGGCCACAGCAGAGGCGUUCACGUCGCGGCCGCUGUCAGAUUCUGGUGAAUCUGCGAAUUCUGCUGU [A16G C34G] | 0.576
GGGGGCCACAGCAGAGGCGUUCACGUCGCGGCCUCUGUCAGAUUCUGGUGAAUCUGCGAAUUCUGCUGU [A16G C34U] | 0.845
GGGGGCCACAGCAGACGCGUUCACGCCGCGGCCCCUGUCAGAUUCUGGUGAAUCUGCGAAUUCUGCUGU [A16C U26C] | 0.264
GGGGGCCACAGCAGACGCGUUCACGACGCGGCCCCUGUCAGAUUCUGGUGAAUCUGCGAAUUCUGCUGU [A16C U26A] | 0.158
GGGGGCCACAGCAGACGCGUUCACGGCGCGGCCCCUGUCAGAUUCUGGUGAAUCUGCGAAUUCUGCUGU [A16C U26G] | 0.102
GGGGGCCACAGCAGACGCGUACACGUCGCGGCCCCUGUCAGAUUCUGGUGAAUCUGCGAAUUCUGCUGU [A16C U21A] | 0.273
GGGGGCCACAGCAGACGCGUGCACGUCGCGGCCCCUGUCAGAUUCUGGUGAAUCUGCGAAUUCUGCUGU [A16C U21G] | 0.0655
GGGGGCCACAGCAGAGGCGUUCACGUCGCGGCCCCUGUCAGAUUUUGGUGAAUCUGCGAAUUCUGCUGU [A16G C45U] | 0.884
GGGGGCCACAGCAGAGGCGUUCACGUCGCGGCCCCUGUCAGAUUAUGGUGAAUCUGCGAAUUCUGCUGU [A16G C45A] | 0.811
GGGGGCCACAGCAGAGGCGUUCACGUCGCGGCCCCUGUCAGAUUGUGGUGAAUCUGCGAAUUCUGCUGU [A16G C45G] | 0.958
GGGGGCCACAGCAGAGGCGUUCACGUCGCGGCCCUUGUCAGAUUCUGGUGAAUCUGCGAAUUCUGCUGU [A16G C35U] | 0.893
GGGGGCCACAGCAGAGGCGUUCACGUCGCGGUCCCUGUCAGAUUCUGGUGAAUCUGCGAAUUCUGCUGU [A16G C32U] | 0.941
GGGGGCCACAGCAGACGCGUUCACGUCGCGGCCCCUGUCAGAUUCUGGUGAAUCUGCGAAUUCUGCUGA [A16C U69A] | 0.451

Variant | self-cleavage
GGGGGCCACAGCAGACGCGUUCACGUCGCGGCCCCUGUCAGAUUCUGGUGAAUCUGCGAAUUCUGCUGG [A16C U69G] | 0.588
GGGGGCCACAGCAGACGCGUUCACGUCGCGGCCCCUGUCAGAUUCUGGUGAAUCUUCGAAUUCUGCUGU [A16C G56U] | 0.145
GGGGGCCACAGCAGACGCGUUCACGUCGCGGCCCCUGUCAGAUCCUGGUGAAUCUGCGAAUUCUGCUGU [A16C U44C] | 0.178
GGGGGCCACAGCAGACGCGUUCACGUCGCGGCCCCUGUCAGAUUCUGGUGAAUCUGCGAAGUCUGCUGU [A16C U61G] | 0.848
GGGGGCCACAGCAGACGCGUUCACGUCGCGGCCCCUGUCAGAUUCUGGUGAAUCUGCGAAUUCUGCUAU [A16C G68A] | 0.61
GGGGGCCACAGCAGACGCGUUCACGUCGCGGCCCCUGUCAGAUUCUGGUGAAUCUGCGAAUUCUGCUCU [A16C G68C] | 0.454
GGGGGCCACAGCAGACGCGUUCACGUCGCGGCCCCUGUCAGAUUCUGGUGAACCUGCGAAUUCUGCUGU [A16C U53C] | 0.152
GGGGGCCACAGCAGACGCGUUCACGUCGCGGCCCCUGUCAGAUUCUGGUGAAGCUGCGAAUUCUGCUGU [A16C U53G] | 0.251
GGGGGCCACAGCAGAGGCGUUCACGUCGCGGCCCCUGUCAGAUUCUGGUGAAUCUGCGAAUUAUGCUGU [A16G C63A] | 0.648
GGGGGCCACAGCAGAGGCGUUCACGUCGCGGCCCCUGUCAGAUUCUGGUGAAUCUGCGAAUUGUGCUGU [A16G C63G] | 0.527
GGGGGCCACAGCAGACGCGUUCACGUCGCGGCCCCUGUCAGAUUCUGUUGAAUCUGCGAAUUCUGCUGU [A16C G48U] | 0.375
GGGGGCCACAGCAGAGGCGUUCGCGUCGCGGCCCCUGUCAGAUUCUGGUGAAUCUGCGAAUUCUGCUGU [A16G A23G] | 0.921
GGGGGCCACAGCAGAGGCGUUCUCGUCGCGGCCCCUGUCAGAUUCUGGUGAAUCUGCGAAUUCUGCUGU [A16G A23U] | 0.955
GGGGGCCACAGCAGAGGCGUUCCCGUCGCGGCCCCUGUCAGAUUCUGGUGAAUCUGCGAAUUCUGCUGU [A16G A23C] | 0.928
GGGGGCCACAGCAGAGGCGUUCACGUCGCGGCCCCUGUCAGAUUCUGGUGAGUCUGCGAAUUCUGCUGU [A16G A52G] | 0.87
GGGGGCCACAGCAGAGGCGUUCACGUCGCGGCCCCUGUCAGAUUCUGGUGAUUCUGCGAAUUCUGCUGU [A16G A52U] | 0.804
GGGGGCCACAGCAGACGCGUUCACGUCGCGGCCCCUGUCAGAUUCUGGUGAAUCUGCGAAUUCGGCUGU [A16C U64G] | 0.119
GGGGGCCACAGCAGAGGCGUUCACGUCGCGGCCCCUGUCAGAUUCUGGUGAAUCUGCGGAUUCUGCUGU [A16G A59G] | 0.944
GGGGGCCACAGCAGAGGCGUUCACGUCGCGGCCCCUGUCAGAUUCUGGUGAAUCUGCGCAUUCUGCUGU [A16G A59C] | 0.417
